This is an account of results in US4753882A, “Urease and process for preparation thereof” (Sapporo Breweries Limited, priority 1986, dated 1988).

Substrate in the data set: NC(N)=O
In words: Km determination of urease by the GlDH method. It is filed as biochemical, Bacillus sp. TB-90. The settings on record: other: GlDH method, 40 mM Tris-HCl buffer pH 8.0, 37° C. The procedure: A reaction solution consisting of 100 millimoles (mM) of urea, 40 mM of Tris-HCl buffer (pH 8.0), 0.86 mM of α-ketoglutaric acid, 0.31 mM of NADPH and 17.2 unit per milliliter (U/ml) of glutamate dehydrogenase (GlDH) was maintained at 37° C. Then an enzyme solution to be measured was added to the reaction solution to initiate the reaction, and a rate of decrease in absorbance at 37° C., E340 nm, was measured. All the concentrations are indicated in their final concentrations. A rate of decrease in NADPH was calculated from the rate of decrease in absorbance E340 nm, and the amount of ammonia formed by the action of urease was calculated from the rate of decrease in absorbance E340 nm.
In connection with enzyme activity, an amount of the enzyme forming 2 micromoles (μmole) of ammonia per minute was defined as one unit (1 U). This definition was calculated based on experiments carried out under the conditions described in the aforementioned GlDH method.
The Km value as determined under the conditions of the aforementioned GlDH method was about 0.3 mM for urea.

B1: urease (EC 3.5.1.5) from Bacillus sp. Strain TB-90 (FERM BP-795) (Bacillus sp. TB-90) (protein)
chain: MSFSMSRKQYADMFGPTVGDAIRLADSELFIEIEKDYTTYGDEVKFGGGKVIRDGMGQHPLATSDECVDLVLTNAIIVDYTGIYKADIGIKDGMIASIGKAGNPLLMDGVDMVIGAATEVIAAEGMIVTAGGIDAHIHFICPQQIETALASGVTTMIGGGTGPATGTNATTCTPGPWNIHRMLQAAEEFPINLGFLGKGNCSDEAPLKEQIEAGAVGLKLHEDWGSTAAAIDTCLKVADRYDVQVAIHTDTLNEGGFVEDTLKAIDGRVIHTYHTEGAGGGHAPDIIKAAGFPNILPSSTNPTRPYTINTLEEHLDMLMVCHHLDANIPEDIAFADSRIRKETIAAEDVLHDLGVFSMISSDSQAMGRVGEVIIRTWQTADKMKKQRGKLQEDNGVGDNFRVKRYIAKYTINPAIAHGIADYVGSVEVGKLADLVVWNPAFFGVKPELVLKGGMIAYSTMGDPNASIPTPQPVLYRPMFAAKGDAKYQTSITFVSKAAYEKGIHEQLGLKKKVKPVHGIRKLTKKDLILNDKTPKIDVDPQTYEVKVDGQLVTCEPAEIVPMAQRYFLF
Take B1: the Km came out at 300 µM.

The Km is the substrate concentration at which the rate is half of its maximum.
